# T1: IL-26 (Homo sapiens, UniProt Q9NPH9)
# T1 sequence (Q9NPH9 22-171): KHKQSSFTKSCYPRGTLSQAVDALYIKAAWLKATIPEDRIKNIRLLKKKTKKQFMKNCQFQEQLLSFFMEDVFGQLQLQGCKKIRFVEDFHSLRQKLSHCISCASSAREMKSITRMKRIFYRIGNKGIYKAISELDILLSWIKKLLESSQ
# Experiments:
# IL-26 [1] = target: T1, IL-26; test: ELISA of antigen binding to human IL-26; set-up: purchased R&D Systems 1375-IL/CF; conditions: plates coated with 0.5 μg/ml human IL-26 monomer; calculated using GraphPadPrism
# Description: The antigen binding of purified Ch69-10-IgG1, Hu69-10A-IgG1, and Hu69-10B-IgG1 was analyzed by ELISA. ELISA plates were coated overnight at 4° C. with the addition of 0.5 μg/ml human IL-26 (recombinant human IL-26/AK155 monomer, Cat #1375-IL/CF, R&D Systems, Minneapolis, MN) at 100 μl/well in 0.2 M sodium carbonate buffer (pH 9.4). Wells were washed with the wash buffer and blocked with the ELISA buffer. Subsequently, 100 μl/well of test antibody (mouse 69-10, Ch69-10-IgG1, Hu69-10A-IgG1, or Hu69-10B-IgG1) serially diluted 2-fold in RPMI medium starting at 5 μg/ml was added to measure a binding with IL-26. After incubation at room temperature for 1 hour and washing the plates with a wash buffer, a 1/2,000-diluted HRP-conjugated goat anti-human kappa chain polyclonal antibody (Bethyl Laboratories) (for Ch69-10-IgG1, Hu69-10A-IgG1 and Hu69-10B-IgG1) or a 1/2,000-diluted HRP-labeled goat anti-mouse kappa chain polyclonal antibody (Bethyl Laboratories) (for mouse 69-10) in ELISA buffer was added at 100 μl/well to detect bound antibodies. After incubation at room temperature for 30 min and washing with the wash buffer, 100 μl/well of ABTS substrate (Sigma Aldrich) was added to start color development and 100 μl/well of 2% oxalic acid was added to stop the color development. The absorbance was measured at 405 nm.
# IL-26 [2] = target: T1, IL-26; test: ICAM-1 expression analysis of COLO205 (neutralizing activity of IL-26); type: cell-based; set-up: host or cells: added exogenously to COLO205 cells; conditions: COLO205, recombinant human IL-26 monomer 20 ng/mL, 24 hours, flow cytometry (MFI)
# Description: COLO205 was seeded at 5×10^4 cells/well in a 96-well flat bottom plate, and stimulated with recombinant human IL-26 monomer (20 ng/mL) in the presence or absence of control human IgG or anti-human IL-26 antibody. After 24 hours of culture, the cells were collected and washed with ice-cold PBS (FCM buffer) containing 1% FBS and 0.1% sodium azide. Thereafter, a solution prepared by diluting a PE-labeled mouse anti-human ICAM-1 monoclonal antibody (clone 15.2, catalog number 50-0549-T100) of Bay bioscience (Kobe, Japan) or a PE-labeled mouse Igl,k isotype control monoclonal antibody (clone MOPC-21, catalogue number 400114) of BioLegend with FCM buffer to 5 μg/mL, was added at 50 μL/sample, and the mixture was allowed to stand at 4° C. for 25 minutes. Thereafter, the cells were washed with ice-cold FCM buffer, then measured with FACSCalibur, and the obtained data was analyzed with FlowJo.
molecule,measurement,setting,value
"69-10: mouse anti-human IL-26 monoclonal antibody, clone 69-10, from deposited hybridoma (antibody, V domains shown) VH: QVTLKESGPGILKPSQTLSLTCSFSGFSLSTSGMGVGWIRQPSGKGLEWLAHIWWDDDKYYNPSLKSQLTISKDTSRNQVFLKITSVDTADTATYYCVRGGITATHYYAMDYWGQGTSVTVSS VL: DIQMTQSPASQSASLGESVTISCLASQTIGTWLSWYQQKPGKSPQLLIYAATSLADGVPSRFSGSGSGTKFSFKISSLQAEDFVSYYCQQLYSSPWTFGGGTKLEIK","EC50 values (binding to human IL-26, ELISA)",IL-26 [1],0.34 µg/mL
same,inhibition of IL-26-enhanced expression of ICAM-1,IL-26 [2],partially inhibited

# — US20230398116A1, “Agent for reversing resistance to anticancer drugs” (Y'S AC CO., LTD., priority 2020, published 2023)
